Test results as given in US20220220216A1 (Kyowa Kirin, published 2022).
Where two headings read alike, the source gives them in different places.

Tests used:
[1] = biological target: T1, human CD40 on cells (human, UniProt P25942 21-277); assay: FCM on Ramos cells (CD40-positive, GPC3-negative)
T1 construct: Endogenous CD40 of Ramos cells (and of monocyte-derived dendritic cells); also called CD40 on Ramos cells; CD40 on human induced dendritic cells
Description: (§1) Ramos cells were suspended in SB at a cell density of 1×10⁶ cells/mL, and the suspension was dispensed in a 96-well round bottom plate (manufactured by Falcon, Inc.) at 100 μL/well.
(§2) After further centrifugation (2000 rpm, 4° C., 2 minutes), the supernatant was removed, and the pellet was washed 3 times with 200 μL/well of SB, and then, APC-conjugated AffiniPure F(ab′)₂ Goat Anti-Human IgG, Fcγ (manufactured by Jackson ImmunoResearch Laboratories, Inc.) diluted 100 times was added thereto at 100 μL/well, and the plate was incubated at ice temperature for 30 minutes. After washing twice with SB, the cells were suspended in 100 μL/well of SB, and the fluorescence intensity of each cell was measured using a flow cytometer FACSCANTO II (manufactured by Becton, Dickinson and Company).

[2] = biological target: T2, Human GPC3-His (manufactured by ACROBiosystems, Inc.) (human, UniProt P51654 25-559); assay: SPR (Biacore T100), antibody captured on anti-human IgG, antigen as analyte, single cycle kinetics
T2 construct: Bought protein; also called hGPC3-His; not shown: His tag
T2 sequence (P51654 25-559 limits assumed): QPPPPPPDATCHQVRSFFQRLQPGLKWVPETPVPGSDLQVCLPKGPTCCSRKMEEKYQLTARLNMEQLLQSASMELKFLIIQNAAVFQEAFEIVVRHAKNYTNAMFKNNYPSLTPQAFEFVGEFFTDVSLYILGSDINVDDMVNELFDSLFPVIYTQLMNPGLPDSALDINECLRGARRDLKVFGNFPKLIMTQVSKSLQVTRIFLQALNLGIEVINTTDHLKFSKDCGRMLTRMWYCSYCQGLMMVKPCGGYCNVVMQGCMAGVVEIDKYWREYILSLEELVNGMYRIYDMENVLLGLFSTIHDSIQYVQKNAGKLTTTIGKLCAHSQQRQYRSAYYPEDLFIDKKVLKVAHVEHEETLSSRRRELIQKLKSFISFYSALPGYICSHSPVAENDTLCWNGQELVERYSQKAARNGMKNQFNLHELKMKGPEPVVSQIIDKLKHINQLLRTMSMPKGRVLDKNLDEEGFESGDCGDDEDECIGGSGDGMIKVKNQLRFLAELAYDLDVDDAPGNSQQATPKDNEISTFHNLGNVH
Description: (§3) An anti-human IgG antibody was immobilized on a CMS sensor chip (manufactured by GE Healthcare, Inc.) using Human Antibody Capture Kit (manufactured by GE Healthcare, Inc.) according to the package insert. A test antibody prepared at 2 μg/mL was added to a flow cell for 10 seconds at a flow rate of 10 μL/min.
(§4) The measurement was performed by a single cycle kinetics method.

[3] = biological target: T1, human CD40 on cells; assay: FCM on Ramos cells (CD40-positive, GPC3-negative), antibody at 0.01-10 µg/mL, APC anti-human IgG Fc, MFI [A]
Description: as §1, §2

[4] = biological target: T3, human GPC3 on a cell membrane (human, UniProt P51654 25-554); assay: FCM on HepG2 cells (GPC3-positive), APC anti-human IgG Fc, MFI [B]
T3 construct: HepG2 and HuH-7 carry the endogenous protein; also called hGPC3; GPC3 on HepG2 cells, HuH-7 cells, MC-38/hGPC3 cells and Expi293F cells transiently expressing human GPC3
T3 sequence (P51654 25-554 limits assumed): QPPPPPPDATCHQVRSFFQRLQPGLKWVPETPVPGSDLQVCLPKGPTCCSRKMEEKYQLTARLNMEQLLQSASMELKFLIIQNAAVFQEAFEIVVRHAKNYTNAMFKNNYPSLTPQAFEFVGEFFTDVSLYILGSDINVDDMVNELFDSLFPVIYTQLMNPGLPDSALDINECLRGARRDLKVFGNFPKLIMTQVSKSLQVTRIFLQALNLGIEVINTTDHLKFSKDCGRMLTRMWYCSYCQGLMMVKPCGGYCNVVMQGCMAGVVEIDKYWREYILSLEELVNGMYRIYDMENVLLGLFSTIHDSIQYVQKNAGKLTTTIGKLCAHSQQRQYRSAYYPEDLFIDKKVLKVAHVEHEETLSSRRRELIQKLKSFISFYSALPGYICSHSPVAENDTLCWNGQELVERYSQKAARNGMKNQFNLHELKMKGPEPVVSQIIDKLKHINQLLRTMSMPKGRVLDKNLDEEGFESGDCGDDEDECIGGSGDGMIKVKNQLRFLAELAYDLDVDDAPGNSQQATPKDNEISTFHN

[5] = biological target: T4, human CD40-GST protein (human, UniProt P25942 21-193); assay: phage ELISA, CD40-GST immobilised on the plate
T4 construct: not shown: GST region of the N5 vector
Description: (§5) In the ELISA, MAXISORP (manufactured by NUNC, Inc.) in which the human or monkey CD40-GST in Example 1 was immobilized on each well and a portion to which the human or monkey CD40-GST is not bound was blocked using SuperBlock Blockig Buffer (manufactured by Thermo Fisher, Inc.) was used. To each well, each phage clone was added and reacted at room temperature for 30 minutes, and thereafter, each well was washed 3 times with PBS-T.
(§6) Subsequently, an anti-M13 antibody (manufactured by GE Healthcare, Inc.) labeled with horseradish peroxidase was diluted 5000 times with PBS-T containing 10% Block Ace (manufactured by Dainippon Pharmaceutical Co., Ltd.), and the resultant was added in an amount of 50 μL to each well, and incubated at room temperature for 30 minutes. After the microplate was washed four times with PBS-T, a TMB chromogenic substrate solution (manufactured by DAKO, Inc.) was added in an amount of 50 μL to each well and incubated at room temperature for 10 minutes.

[6] = biological target: T5, monkey CD40-GST protein (monkey, UniProt P25942 21-193 (human entry)); assay: phage ELISA, CD40-GST immobilised on the plate
T5 construct: it may begin with a signal peptide; not shown: GST region of the N5 vector
T5 chain: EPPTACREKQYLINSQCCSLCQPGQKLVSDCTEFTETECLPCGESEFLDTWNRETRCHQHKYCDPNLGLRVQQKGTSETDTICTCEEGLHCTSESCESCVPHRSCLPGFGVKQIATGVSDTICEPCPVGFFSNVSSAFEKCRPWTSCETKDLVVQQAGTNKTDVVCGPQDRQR
Description: as §5, §6

[7] = biological target: T2, Human GPC3-His (manufactured by …); assay: SPR (Biacore T100), antibody captured on anti-human IgG, antigen as analyte, single cycle kinetics; remark: listed apart in the source
Description: as §3, §4
(§7) The obtained sensorgram was analyzed using Bia Evaluation Software (manufactured by GE Healthcare, Inc.), and the kinetic constant of each antibody was calculated.

[8] = biological target: T2, Human GPC3-His (manufactured by …); assay: SPR (Biacore T100), antibody captured on anti-human IgG, antigen as analyte, single cycle kinetics; second run (Table 9)
Description: as §3, §4

[9] = biological target: T2, Human GPC3-His (manufactured by …); assay: SPR (Biacore T100), antibody captured on anti-human IgG, antigen as analyte, single cycle kinetics; first run (Table 8)
Description: as §3, §4, §7

[10] = biological target: T1, human CD40 on cells; assay: FCM on Ramos cells (CD40-positive), MFI [B]
Description: The reactivity of each of various bispecific antibodies produced in Example 16 with HepG2 cells and Ramos cells was evaluated by FCM in the same manner as in Example 7.

[11] = biological target: T1, human CD40 on cells; assay: FCM on Ramos cells (CD40-positive, GPC3-negative), APC anti-human IgG Fc, MFI [A]
Description: as §1, §2

B1: anti-GPC3 antibody GPngs62 (antibody, human IgG4 S228P, kappa, V domains shown)
VH: EVQLVESGGGLVQPGGSLRLSCAASGFTFSSYARSWVRQAPGKGLEWVSAISGGGGRTYYADSVKGRFTISRDNSQNTLYLQMNSLRAEDTAVYYCAKNYYGSGSASYWYFDLWGRGTLVTVSS
VL: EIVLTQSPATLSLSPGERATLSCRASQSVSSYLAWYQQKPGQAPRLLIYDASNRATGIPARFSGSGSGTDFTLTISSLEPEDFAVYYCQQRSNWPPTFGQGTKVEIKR
notes: IgG4PE R409K; light chain with L6 as VL
[1]
  binding result: no binding (tested: 10 µg/mL)
[2]
  Kd: 5.36 nM
  koff: 0.031 s⁻¹
  kon: 5.74e+06 M⁻¹ s⁻¹

B2: anti-CD40 monoclonal antibody R1090S55A (antibody, V domains shown)
VH: EVQLVQSGAEVKKPGESLKISCKGSGYSFIIYWIGWVRQMPGKGLEWMGIIYPNDADTRYSPSFQGQVTISADKSISTAYLQWSSLKASDTAMYYCVRLGTRDWFDPWGQGTLVTVSS
VL: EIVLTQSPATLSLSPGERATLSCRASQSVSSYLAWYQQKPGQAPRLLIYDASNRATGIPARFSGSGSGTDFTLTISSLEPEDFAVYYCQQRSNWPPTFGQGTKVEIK
[3]
  binding result: binds
[4]
  binding result: no binding (tested: 10 µg/mL)

B3: R1090S55A monoclonal phage clone (scFv displayed on M13 phage) (scFv, V domains shown)
VH: EVQLVQSGAEVKKPGESLKISCKGSGYSFIIYWIGWVRQMPGKGLEWMGIIYPNDADTRYSPSFQGQVTISADKSISTAYLQWSSLKASDTAMYYCVRLGTRDWFDPWGQGTLVTVSS
VL: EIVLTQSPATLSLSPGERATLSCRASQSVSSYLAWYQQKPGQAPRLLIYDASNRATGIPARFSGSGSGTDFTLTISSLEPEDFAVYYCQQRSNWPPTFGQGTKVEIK
notes: Form in the screening ELISA: scFv on phage (phagemid pCANTAB 5E); also called R1090S55A phage clone
[5]
  binding result: binds
[6]
  binding result: binds

B4: anti-CD40 monoclonal antibody 21.4.1 (CP-870,893) (antibody, V domains shown)
VH: not shown
VL: DIQMTQSPSSVSASVGDRVTITCRASQGIYSWLAWYQQKPGKAPNLLIYTASTLQSGVPSRFSGSGSGTDFTLTISSLQPEDFATYYCQQANIFPLTFGGGTKVEIK
notes: Constant region of human IgG2 (N5KG2 vector); positive control agonistic anti-CD40 antibody
[4]
  binding result: no binding (tested: 10 µg/mL)

B5: anti-GPC3 antibody GPngs18 (antibody, human IgG4 S228P, kappa, V domains shown)
VH: EVQLVESGGGLVQPGGSLRLSCAASGFTFSSYSMNWVRQAPGKGLEWVSYIRSDSRTIKYADSVKGRFTISRDNAKNSLFLQMNSLRDEDTAVYYCARWEWELDAFDIWGQGTMVTVSS
VL: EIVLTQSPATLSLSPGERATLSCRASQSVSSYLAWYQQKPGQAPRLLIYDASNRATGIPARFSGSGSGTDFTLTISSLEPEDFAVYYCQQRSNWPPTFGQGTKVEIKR
notes: as for B1
[1]
  binding result: no binding (tested: 10 µg/mL)
[2]
  Kd: 0.39 nM
  koff: 0.000764 s⁻¹
  kon: 1.96e+06 M⁻¹ s⁻¹

B6: conventional anti-GPC3 antibody HN3 (IgG4PE R409K) (antibody, V domains shown)
VH: QVQLVQSGGGLVQPGGSLRLSCAASYFDFDSYEMSWVRQAPGKGLEWIGSIYHSGSTYYNPSLKSRVTISRDNSKNTLYLQMNTLRAEDTATYYCARVNMDRFDYWGQGTLVTVSS
notes: Variable region from WO 2012/145469
[7]
  Kd: 13.2 nM
[8]
  kon: > 1e+07 M⁻¹ s⁻¹
[9]
  kon: > 1e+07 M⁻¹ s⁻¹
[10]
  binding result: no binding (tested: 10 µg/mL)
[2]
  Kd: 24.4 nM

B7: conventional anti-GPC3 antibody YP7 (IgG4PE R409K) (antibody, V domains shown)
VH: EVQLVETGGGMVQPEGSLKLSCAASGFTFNKNAMNWVRQAPGKGLEWVARIRNKTNNYATYYADSVKARFTISRDDSQSMLYLQMNNLKIEDTAMYYCVAGNSFAYWGQGTLVTVSA
VL: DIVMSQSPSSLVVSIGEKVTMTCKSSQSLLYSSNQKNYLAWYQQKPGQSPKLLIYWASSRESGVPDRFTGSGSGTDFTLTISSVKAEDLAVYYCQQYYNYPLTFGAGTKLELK
notes: Variable regions from WO 2013/181543; not shown: constant region of 'a κ chain'
[7]
  Kd: 0.861 nM
  koff: 0.000186 s⁻¹
  kon: 217000 M⁻¹ s⁻¹
[10]
  binding result: no binding (tested: 10 µg/mL)

B8: anti-GPC3 antibody GpA6062 (antibody, human IgG4 S228P, kappa, V domains shown)
VH: EVQLVETGGGLVQPGGSLRLSCAASGFSFSSYAMNWVRQAPGKGLEWVSYITSGGSSRYYADSVKGRFTISRDNAKNSLYLQMNSLRDEDTAVYYCARGTYYYGSGNYFLFDYWGQGTTVTVSS
VL: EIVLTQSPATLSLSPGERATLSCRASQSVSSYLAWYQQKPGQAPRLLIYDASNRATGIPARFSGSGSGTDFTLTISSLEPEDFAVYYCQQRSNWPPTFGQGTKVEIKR
notes: as for B1
[11]
  binding result: no binding (tested: 10 µg/mL)
[2]
  Kd: 6.33 nM
  koff: 0.00175 s⁻¹
  kon: 276000 M⁻¹ s⁻¹

B9: anti-GPC3 antibody GpA6014 (antibody, human IgG4 S228P, kappa, V domains shown)
VH: QMQLVQSGGGLVQPGGSLRLSCAASGFSFSSYAMNWVRQAPGKGLEWVSYITSGGSSRYYADSVKGRFTISRDNAKNSLYLQMNSLRDEDTAVYYCARGTYYYGSGNYFLFDHWGQGTMVTVSS
VL: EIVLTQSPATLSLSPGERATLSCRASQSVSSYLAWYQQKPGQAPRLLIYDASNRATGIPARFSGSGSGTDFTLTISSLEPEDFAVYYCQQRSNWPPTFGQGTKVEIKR
notes: as for B1
[11]
  binding result: no binding (tested: 10 µg/mL)
[2]
  Kd: 6.35 nM
  koff: 0.00189 s⁻¹
  kon: 297000 M⁻¹ s⁻¹

B10: anti-GPC3 antibody GpA6005 (antibody, human IgG4 S228P, kappa, V domains shown)
VH: QVQLVESGGGLVQPGGSLRLSCAASGFTFSSYSMNWVRQAPGKGLEWVSYIKSSGSSTYYADSVKGRFTISRDNAKNSLNLQMNSLRDEDTAVYYCARGTYYYGSGNFFLFDYWGQGTLVTVSS
VL: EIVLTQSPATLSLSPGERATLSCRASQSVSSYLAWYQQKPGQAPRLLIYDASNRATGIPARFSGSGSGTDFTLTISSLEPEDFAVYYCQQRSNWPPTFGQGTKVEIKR
notes: as for B1
[11]
  binding result: no binding (tested: 10 µg/mL)
[2]
  Kd: 0.762 nM
  koff: 0.000347 s⁻¹
  kon: 456000 M⁻¹ s⁻¹

B11: conventional anti-GPC3 antibody GC33 (IgG4PE R409K) (antibody, V domains shown)
VH: QVQLQQSGAELVRPGASVKLSCKASGYTFTDYEMHWVKQTPVHGLKWIGALDPKTGDTAYSQKFKGKATLTADKSSSTAYMELRSLTSEDSAVYYCTRFYSYTYWGQGTLVTVSA
VL: DVVMTQTPLSLPVSLGDQASISCRSSQSLVHSNGNTYLHWYLQKPGQSPKLLIYKVSNRFSGVPDRFSGSGSGTDFTLKISRVEAEDLGVYFCSQNTHVPPTFGSGTKLEIK
notes: Variable regions from WO 2006/006693; not shown: constant region of 'a κ chain'
[7]
  Kd: 2.6 nM
  koff: 0.000378 s⁻¹
  kon: 145000 M⁻¹ s⁻¹
[10]
  binding result: no binding (tested: 10 µg/mL)
[2]
  Kd: 1.46 nM
  koff: 0.000299 s⁻¹
  kon: 205000 M⁻¹ s⁻¹
